Test results as given in patent publication US20030109454A1 (ADHEREX TECHNOLOGIES, published 2003).

B1: N-Ac-WLKIDPVNGQI-NH2 (peptide)
peptide: Ac-WLKIDPVNGQI-NH2
B2: N-Ac-LNPISGQ-NH2 (peptide)
peptide: Ac-LNPISGQ-NH2
B3: N-Ac-INAISGQ-NH2 (peptide)
peptide: Ac-INAISGQ-NH2
B4: N-Ac-INPISGQ-NH2 (peptide)
peptide: Ac-INPISGQ-NH2
B5: N-Ac-INPASGQ-NH2 (peptide)
peptide: Ac-INPASGQ-NH2
B6: N-Ac-CINPISC-NH2 (peptide)
peptide: Ac-CINPISC-NH2
modifications: not fully specified (bridges); printed as N-Ac-CINPISC-NH2; also: cyclic peptide, linkage not given here
B7: N-Ac-CINPC-NH2 (peptide)
peptide: Ac-CINPC-NH2
modifications: also: cyclic peptide, ring type not given here
B8: N-Ac-CINPIC-NH2 (peptide)
peptide: Ac-CINPIC-NH2
modifications: not fully specified (bridges); also: cyclic peptide, linkage not given here
B9: H-LKIDPANGQI-OH (peptide)
peptide: H-LKIDPANGQI-OH
B10: N-Ac-WLKADAVNGQI-NH2 (peptide)
peptide: Ac-WLKADAVNGQI-NH2
B11: H-LKIDPVNGQI-OH (peptide)
peptide: H-LKIDPVNGQI-OH
B12: H-WLKIDPVNGQI-OH (peptide)
peptide: H-WLKIDPVNGQI-OH
B13: N-Ac-IDPVNGQ-NH2 (peptide)
peptide: Ac-IDPVNGQ-NH2
B14: N-Ac-CIDPVNC-NH2 (peptide)
peptide: Ac-CIDPVNC-NH2
modifications: not fully specified (bridges); printed as N-Ac-CIDPVNC-NH2; also: cyclic peptide, linkage not given here
B15: N-Ac-NLKIDPVNGQI-NH2 (peptide)
peptide: Ac-NLKIDPVNGQI-NH2
B16: H-LKIDAVNGQI-OH (peptide)
peptide: H-LKIDAVNGQI-OH
B17: N-Ac-WLKADPVNGQI-NH2 (peptide)
peptide: Ac-WLKADPVNGQI-NH2
B18: N-Ac-WLKIDAVNGQI-NH2 (peptide)
peptide: Ac-WLKIDAVNGQI-NH2

Target: N-cadherin expressed on transfected 3T3 cells
Assay: cell-based or functional assay

With B1 the “EC50 of inhibition of neurite outgrowth” value was 46 µM.

Target: N-cadherin expressed on transfected 3T3 cells
Assay: cell-based or functional assay
Remark: another data set of the same source

First: B2
Second: B3
The “percent inhibition of neurite outgrowth on 3T3 cells expressing N-cadherin, peptide at 100 µg/ml” value of the first is lower: 19.2% for the first, 37.2% for the second.

Compared with B4, B5 is lower in “percent inhibition of neurite outgrowth on 3T3 cells expressing N-cadherin, peptide at 100 µg/ml” value: 94.5% for the first, 7.2% for the second.

Target: N-cadherin expressed on transfected 3T3 cells
Assay: cell-based or functional assay
Remark: another data set of the same source

Compared with B6, B7 is 2.7-fold lower in “EC50 of inhibition of neurite outgrowth on 3T3 cells expressing N-cadherin” value: 38.1 µM for the first, 14.3 µM for the second.

With B8 the “EC50 of inhibition of neurite outgrowth on 3T3 cells expressing N-cadherin” value was 38.2 µM.

Target: N-cadherin expressed on transfected 3T3 cells
Assay: cell-based or functional assay
Remark: another data set of the same source

First: B9
Second: B10
The “percent inhibition of neurite outgrowth, peptide at 100 µg/ml” value of the first is higher: 56.8% for the first, 10.5% for the second.

First: B11
Second: B1
The “percent inhibition of neurite outgrowth, peptide at 100 µg/ml” value of the first is lower: 46% for the first, 66.9% for the second.

Going from B12 to B13, the “percent inhibition of neurite outgrowth, peptide at 100 µg/ml” value falls from 76.1% to 56.4%.

Going from B14 to B15, the “percent inhibition of neurite outgrowth, peptide at 100 µg/ml” value falls from 75.8% to 67.8%.

Going from B16 to B17, the “percent inhibition of neurite outgrowth, peptide at 100 µg/ml” value falls from 104% to 22.2%.

In the case of B18, the “percent inhibition of neurite outgrowth, peptide at 100 µg/ml” value is reported as 12.4%.

Going from B10 to B1, the “percent inhibition of neurite outgrowth, peptide at 250 µg/ml” value (shortened to “percent inhibition … at 250 µg/ml”) rises from 19.7% to 83.5%.

Compared with B13, B14 is higher in “percent inhibition … at 250 µg/ml” value: 85.6% for the first, 96.4% for the second.

Compared with B15, B17 is lower in “percent inhibition … at 250 µg/ml” value: 86.8% for the first, 54.7% for the second.

In the case of B18, the “percent inhibition … at 250 µg/ml” value is reported as 52.3%.

First: B1
Second: B13
The “percent inhibition of neurite outgrowth, peptide at 33 µg/ml” value of the first is lower: 19.8% for the first, 34.3% for the second.

Going from B14 to B15, the “percent inhibition of neurite outgrowth, peptide at 33 µg/ml” value falls from 40.6% to 25.6%.
